The results in this text go back to US20230151073A1, “FIBRILLATION RESISTANT CALCITONIN PEPTIDES AND USES THEREOF” (Purdue Research Foundation, priority 2020, published 2023).

A short description of series [1]: Fibrillation kinetics by Thioflavin-T (ThioT) fluorescence measurement. Type of series: physicochemical. The conditions noted are these: 100 μM peptide. The method, then: The fibrillation kinetics of hCT, rhCT and phCT was monitored by measuring the increase in fluorescence intensity upon thioflavin T (ThioT) binding to peptide fibrils. The ThioT stock solution (2.5 mM) was prepared in di-water and diluted 10-fold with buffer to give a working solution (250 μM). […] The peptide solution was quickly transferred to a 96-well microtiter plate and placed in a Synergy Neo2 Multi-Detection microplate reader (BioTek Instruments, Winooski, Vt.). 5 μL of ThioT working solution (250 μM) was added to 245 μL of peptide solution in each well to give a final ThioT concentration of 5 μM per well. At each time point, six replicate measurements were performed for each sample. Fibrillation was carried out for 12 or 24 h at 25° C. with continuous shaking at 731 cpm. The fluorescence intensity of ThioT was bottom-read at an interval of 10 or 15 min, at excitation and emission wavelengths of 440 nm and 482 nm, respectively.
The ThioT fluorescence data were fitted to the Boltzmann sigmoidal function as given below, using GraphPad Prism version 7.03 (GraphPad Software, La Jolla, Calif.).
where A1 is the minimum signal, A2 is the maximum signal, xo is the time at which the change in signal is 50% (t50) and dx′ is the slope of growth phase.^1 The lag time was determined either by sigmoidal fit to the fibrillation kinetics curve or using onset point determination. In sigmoidal fits, the lag time was determined as xo−2 dx′ using parameters obtained from nonlinear fit of the data to Eq. 1. […] In cases where sigmoid curve fitting could not be achieved, the t50 was estimated from the raw data as the time when the signal intensity reached half of the observed maximum value.

A short description of series [2]: Fibrillation kinetics by turbidity measurement (UV absorbance at 340 nm). The series is classed as physicochemical. The conditions noted are these: 100 μM peptide, 731 cpm. The method, then:
Fibrillation kinetics of hCT, rhCT and phCT was followed by measuring the increase in solution turbidity due to formation of soluble oligomeric species and insoluble fibrils. […] At each time point, six replicate measurements were performed for each sample. Fibrillation was carried out for 12 or 24 h at 25° C. with continuous shaking at 731 cpm. Solution turbidity was measured by UV absorbance at 340 nm at 10 or 15-min read intervals. The turbidity data was fitted to the Boltzmann sigmoidal function (Eq. 1) and analyzed as described above.

Series [3] is described as follows: Secondary structure change during fibrillation by CD spectroscopy. Type of series: physicochemical. The conditions noted are these: 0 to 1440 min, 100 μM peptide, pH 7.4, 25° C., 731 cpm. The method, then:
Changes in the secondary structure of hCT and phCT were monitored by CD spectroscopy using a Jasco J-815 spectrometer (JASCO Analytical Instruments, Easton, Md.). […] At predetermined time intervals, samples were withdrawn for CD analysis. CD spectra were recorded in a quartz cuvette with 1 mm pathlength, scanned from 190 nm to 260 nm in the far UV range, at a scan speed of 50 nm/min at 20° C. Each spectrum was reported as an average of three scans.

Series [4] can be described thus: Visual inspection of 96-well plates after fibrillation. Type of series: physicochemical. To be noted: after fibrillation in 96-well plates, 24 h.
[5] abbreviates: 20 mM sodium phosphate buffer pH 7.4, 25° C., continuous shaking at 731 cpm, n=6, mean±SD.
Where [6] appears, read: 20 mM sodium phosphate buffer pH 7.4, 25° C., n=6, mean±SD.
Where [7] appears, read: after 360 min of fibrillation time.
Setting [8] is: after 1440 min of fibrillation, pepsin digestion.

Regarding human calcitonin [hCT], in series [1] (setting [5]), the “lag time of fibrillation, ThioT fluorescence” value came out at 172 ± 15 min and the “t50 of fibrillation, ThioT fluorescence” value was found to be 236 ± 8 min. The “lag time of fibrillation, ThioT fluorescence” value in series [1] (20 mM sodium phosphate buffer pH 7.4, 25° C., continuous shaking at 731 cpm, n=6, mean±SD, listed as native hCT) was found to be 172 ± 15 min. Further, the “change in ThioT fluorescence with time” value in series [1] (pH 7.4, 25° C., 731 cpm) is reported as “an increase in ThioT fluorescence was observed”. In addition, in series [2] (setting [6]), the “lag time of fibrillation, turbidity” value turned out to be 198 ± 20 min and the “t50 of fibrillation, turbidity” value worked out at 257 ± 15 min. Further, the “change in turbidity signal” value in series [2] (pH 7.4, 25° C.) is “An increase in solution turbidity was also observed”. Further, the “change of CD signal during fibrillation” value in series [3] is recorded as “complete loss in signal”. Moreover, the “appearance on visual inspection” value in series [4] was “solid dense deposits”. Under setting [7], the “deuterium incorporation, fragment 1-8” value is recorded as 16%; the “deuterium incorporation, fragment 1-11” value was found to be 13%; the “deuterium incorporation, fragment 12-19” value came out at 22%. In addition, the “percent deuterium uptake, intact level” value (after 1440 min of fibrillation) came out at 28%. Besides, under setting [8], the “deuterium uptake, fragment 20-32” value is listed as 51% and the “deuterium uptake, fragment 26-32” value was 54%. For the same substance, for the setting “fibrillation time t=0 min”, the “% D (percent deuterium uptake), intact level, Peak II” value is 68%. Besides, the “deuterium uptake, C-terminal fragments 20-32 and 26-32, initial value” (start of fibrillation) is recorded as roughly 60%.
